B1: Cytoplasmic 60S subunit biogenesis factor ZNF622 (Homo sapiens), Q969S3 (parent)
chain: MATYTCITCRVAFRDADMQRAHYKTDWHRYNLRRKVASMAPVTAEGFQERVRAQRAVAEEESKGSATYCTVCSKKFASFNAYENHLKSRRHVELEKKAVQAVNRKVEMMNEKNLEKGLGVDSVDKDAMNAAIQQAIKAQPSMSPKKAPPAPAKEARNVVAVGTGGRGTHDRDPSEKPPRLQWFEQQAKKLAKQQEEDSEEEEEDLDGDDWEDIDSDEELECEDTEAMDDVVEQDAEEEEAEEGPPLGAIPITDCLFCSHHSSSLMKNVAHMTKDHSFFIPDIEYLSDIKGLIKYLGEKVGVGKICLWCNEKGKSFYSTEAVQAHMNDKSHCKLFTDGDAALEFADFYDFRSSYPDHKEGEDPNKAEELPSEKNLEYDDETMELILPSGARVGHRSLMRYYKQRFGLSRAVAVAKNRKAVGRVLQQYRALGWTGSTGAALMRERDMQYVQRMKSKWMLKTGMKNNATKQMHFRVQVRF
B2: Mitogen-activated protein kinase kinase kinase 5 (Homo sapiens), Q99683 (parent)
chain: MSTEADEGITFSVPPFAPSGFCTIPEGGICRRGGAAAVGEGEEHQLPPPPPGSFWNVESAAAPGIGCPAATSSSSATRGRGSSVGGGSRRTTVAYVINEASQGQLVVAESEALQSLREACETVGATLETLHFGKLDFGETTVLDRFYNADIAVVEMSDAFRQPSLFYHLGVRESFSMANNIILYCDTNSDSLQSLKEIICQKNTMCTGNYTFVPYMITPHNKVYCCDSSFMKGLTELMQPNFELLLGPICLPLVDRFIQLLKVAQASSSQYFRESILNDIRKARNLYTGKELAAELARIRQRVDNIEVLTADIVINLLLSYRDIQDYDSIVKLVETLEKLPTFDLASHHHVKFHYAFALNRRNLPGDRAKALDIMIPMVQSEGQVASDMYCLVGRIYKDMFLDSNFTDTESRDHGASWFKKAFESEPTLQSGINYAVLLLAAGHQFESSFELRKVGVKLSSLLGKKGNLEKLQSYWEVGFFLGASVLANDHMRVIQASEKLFKLKTPAWYLKSIVETILIYKHFVKLTTEQPVAKQELVDFWMDFLVEATKTDVTVVRFPVLILEPTKIYQPSYLSINNEVEEKTISIWHVLPDDKKGIHEWNFSASSVRGVSISKFEERCCFLYVLHNSDDFQIYFCTELHCKKFFEMVNTITEEKGRSTEEGDCESDLLEYDYEYDENGDRVVLGKGTYGIVYAGRDLSNQVRIAIKEIPERDSRYSQPLHEEIALHKHLKHKNIVQYLGSFSENGFIKIFMEQVPGGSLSALLRSKWGPLKDNEQTIGFYTKQILEGLKYLHDNQIVHRDIKGDNVLINTYSGVLKISDFGTSKRLAGINPCTETFTGTLQYMAPEIIDKGPRGYGKAADIWSLGCTIIEMATGKPPFYELGEPQAAMFKVGMFKVHPEIPESMSAEAKAFILKCFEPDPDKRACANDLLVDEFLKVSSKKKKTQPKLSALSAGSNEYLRSISLPVPVLVEDTSSSSEYGSVSPDTELKVDPFSFKTRAKSCGERDVKGIRTLFLGIPDENFEDHSAPPSPEEKDSGFFMLRKDSERRATLHRILTEDQDKIVRNLMESLAQGAEEPKLKWEHITTLIASLREFVRSTDRKIIATTLSKLKLELDFDSHGISQVQVVLFGFQDAVNKVLRNHNIKPHWMFALDSIIRKAVQTAITILVPELRPHFSLASESDTADQEDLDVEDDHEEQPSNQTVRRPQAVIEDAVATSGVSTLSSTVSHDSQSAHRSLNVQLGRMKIETNRLLEELVRKEKELQALLHRAIEEKDQEIKHLKLKSQPIEIPELPVFHLNSSGTNTEDSELTDWLRVNGADEDTISRFLAEDYTLLDVLYYVTRDDLKCLRLRGGMLCTLWKAIIDFRNKQT
partner: B1 chain

The first assay covers variants of B1. To be noted: with m3k5_human MAP3K5, Q99683.
As to MATYTCITCRVAFRDADMQRAHYKTDWHRYNLRRKVASMAPVTAEGFQERVRAQRAVAEEESKGSATYCTVCSKKFASFNAYENHLKSRRHVELEKKAVQAVNRKVEMMNEKNLEKGLGVDSVDKDAMNAAIQQAIKAQPSMSPKKAPPAPAKEARNVVAVGTGGRGTHDRDPSEKPPRLQWFEQQAKKLAKQQEEDSEEEEEDLDGDDWEDIDSDEELECEDTEAMDDVVEQDAEEEEAEEGPPLGAIPITDCLFCSHHSSSLMKNVAHMTKDHSFFIPDIEYLSDIKGLIKYLGEKVGVGKISLWSNEKGKSFYSTEAVQAHMNDKSHCKLFTDGDAALEFADFYDFRSSYPDHKEGEDPNKAEELPSEKNLEYDDETMELILPSGARVGHRSLMRYYKQRFGLSRAVAVAKNRKAVGRVLQQYRALGWTGSTGAALMRERDMQYVQRMKSKWMLKTGMKNNATKQMHFRVQVRF [C305S;C308S], the “effect of a mutation on the interaction” value is on record as “disrupting interaction”.

Turning to MATYTCITCRVAFRDADMQRAHYKTDWHRYNLRRKVASMAPVTAEGFQERVRAQRAVAEEESKGSATYCTVCSKKFASFNAYENHLKSRRHVELEKKAVQAVNRKVEMMNEKNLEKGLGVDSVDKDAMNAAIQQAIKAQPSMSPKKAPPAPAKEARNVVAVGTGGRGTHDRDPSEKPPRLQWFEQQAKKLAKQQEEDSEEEEEDLDGDDWEDIDSDEELECEDTEAMDDVVEQDAEEEEAEEGPPLGAIPITDCLFCSHHSSSLMKNVAHMTKDHSFFIPDIEYLSDIKGLIKYLGEKVGVGKISLWCNEKGKSFYSTEAVQAHMNDKSHCKLFTDGDAALEFADFYDFRSSYPDHKEGEDPNKAEELPSEKNLEYDDETMELILPSGARVGHRSLMRYYKQRFGLSRAVAVAKNRKAVGRVLQQYRALGWTGSTGAALMRERDMQYVQRMKSKWMLKTGMKNNATKQMHFRVQVRF [C305S], the “effect of a mutation on the interaction” value is “decreasing interaction”.

For MATYTCITCRVAFRDADMQRAHYKTDWHRYNLRRKVASMAPVTAEGFQERVRAQRAVAEEESKGSATYCTVCSKKFASFNAYENHLKSRRHVELEKKAVQAVNRKVEMMNEKNLEKGLGVDSVDKDAMNAAIQQAIKAQPSMSPKKAPPAPAKEARNVVAVGTGGRGTHDRDPSEKPPRLQWFEQQAKKLAKQQEEDSEEEEEDLDGDDWEDIDSDEELECEDTEAMDDVVEQDAEEEEAEEGPPLGAIPITDCLFCSHHSSSLMKNVAHMTKDHSFFIPDIEYLSDIKGLIKYLGEKVGVGKICLWSNEKGKSFYSTEAVQAHMNDKSHCKLFTDGDAALEFADFYDFRSSYPDHKEGEDPNKAEELPSEKNLEYDDETMELILPSGARVGHRSLMRYYKQRFGLSRAVAVAKNRKAVGRVLQQYRALGWTGSTGAALMRERDMQYVQRMKSKWMLKTGMKNNATKQMHFRVQVRF [C308S], the “effect of a mutation on the interaction” value is on record as “decreasing interaction”.

The variants in a further assay derive from B2. To be noted: with zn622_human ZNF622, Q969S3.
Turning to C1351S;C1360S, the “effect of a mutation on the interaction” value was “disrupting interaction”.

On to C1360S, for which the “effect of a mutation on the interaction” value was “decreasing interaction”.

With C1351S, the “effect of a mutation on the interaction” value is “decreasing interaction”.

A further assay covers variants of B2. To be noted: with zn622_human ZNF622, Q969S3. The source holds these as a separate data set.
As to C1351S;C1360S, the “effect of a mutation on the interaction” value was “disrupting interaction”.

The record behind these values is IntAct's records for PubMed 21771788.
